Assay results taken from PMC10290117 (2023).
Numbered stars: 1 amine (or outer) side, 2 acyl side, 3 side chain; on linkers, the order of the positions; unused ones are H or OH. Square brackets hold non-standard residues; d marks the D form. Ends that are not written are not given here. OSE = (2S)-2-amino-3-sulfooxy-propanoic acid, sulfo-serine, O=C([C@H](COS(=O)(=O)O)N[*:1])[*:2]; Abu(4-PO3H2) = N[C@@H](CCP(=O)(O)O)C(=O)O; pS = N[C@@H](COP(=O)(O)O)C(=O)O

T1: HLA-B*0702, biotinylated recombinant HLA class I molecule of the Alpha assay (human, biotin)
T1 chain: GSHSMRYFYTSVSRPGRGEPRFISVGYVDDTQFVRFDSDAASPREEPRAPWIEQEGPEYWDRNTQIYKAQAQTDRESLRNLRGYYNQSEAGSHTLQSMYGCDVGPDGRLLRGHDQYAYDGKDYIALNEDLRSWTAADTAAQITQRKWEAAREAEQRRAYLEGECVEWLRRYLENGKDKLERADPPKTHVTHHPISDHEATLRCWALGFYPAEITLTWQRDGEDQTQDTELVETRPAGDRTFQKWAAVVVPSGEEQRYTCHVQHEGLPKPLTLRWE


Molecular target: T1, HLA-B*0702, biotinylated recombinant …

Point of comparison: EPR[Abu(4-PO3H2)]PSHSM [E7P-MLL_(747–755) peptide EPR(E7P)PSHSM], Kd 33.9 nM. Against it:
- EPR[OSE]PSHSM [OSE-MLL_(747–755) peptide EPR(OSE)PSHSM] — within 1.5-fold, 26.2 nM
- EPRSPSHSM [MLL_(747–755) peptide EPRSPSHSM] — within 1.5-fold, 27 nM
- LPA[pS]PAHQL [pDOT1L_(998–1006) phosphopeptide LPA(pS)PAHQL] — 9.1-fold higher, 309 nM
- EPR[pS]PSHSM [pMLL_(747–755) phosphopeptide EPR(pS)PSHSM] — 1.7-fold higher, 56.7 nM
- LPASPAHQL [DOT1L_(998–1006) peptide LPASPAHQL] — 1.6-fold higher, 54.3 nM
